Eleven molecules from patent US20180155451A1 (published 2018) can be followed below.

This experiment concerns the target T1, FcγRIIb extracellular domain with C-terminal His tag (human, UniProt P31994 43-217).
T1 construct: extracellular domain; expressed in FreeStyle293 cells; analyte in the Biacore assay; also called FcgRIIb; 2b; not shown: His tag at the C terminus
T1 sequence (looked up): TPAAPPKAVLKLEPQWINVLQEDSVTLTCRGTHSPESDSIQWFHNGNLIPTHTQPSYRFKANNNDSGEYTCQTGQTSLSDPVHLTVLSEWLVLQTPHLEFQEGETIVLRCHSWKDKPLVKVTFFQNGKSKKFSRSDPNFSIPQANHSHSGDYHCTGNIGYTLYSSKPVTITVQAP
The experiment can be described thus: SPR (Biacore), captured antibody, FcγRIIb analyte; binding relative to GpH7-A5/GpH7-B3/GpL16-k0 = 100. On the technique in general: SPR reads the build-up and loss of mass on a sensor chip optically.

B1: GpH7-A5/GpH7-B3 variant K334_07I/GpL16-k0 (antibody, human IgG1, kappa)
heavy 1: not shown
heavy 2: not shown
light: DIVMTQSPLSLPVTPGEPASISCQASESLVHSNRNTYLHWYLQKPGQSPQLLIYKVSNRFSGVPDRFSGSGSGTDFTLKISRVEAEDVGVYYCSQNTHVPPTFGQGTKVEIERTVAAPSVFIFPPSDEQLKSGTASVVCLLNNFYPREAKVQWKVDNALQSGNSQESVTEQDSKDSTYSLSSTLTLSKADYEKHKVYACEVTHQGLSSPVTKSFNRGEC
notes: heterodimerized; mutation in the B3 H chain only; also called He Ab K334_07I
B1: the He/Con_2b is 119 % of control.

B2: GpH7-A5/GpH7-B3 variant K326_06M/GpL16-k0 (antibody, human IgG1, kappa)
heavy 1: not shown
heavy 2: not shown
light: DIVMTQSPLSLPVTPGEPASISCQASESLVHSNRNTYLHWYLQKPGQSPQLLIYKVSNRFSGVPDRFSGSGSGTDFTLKISRVEAEDVGVYYCSQNTHVPPTFGQGTKVEIERTVAAPSVFIFPPSDEQLKSGTASVVCLLNNFYPREAKVQWKVDNALQSGNSQESVTEQDSKDSTYSLSSTLTLSKADYEKHKVYACEVTHQGLSSPVTKSFNRGEC
notes: heterodimerized; mutation in the B3 H chain only; also called He Ab K326_06M
B2: the He/Con_2b was 165 % of control.

B3: GpH7-A5/GpH7-B3 variant K326_20W/GpL16-k0 (antibody, human IgG1, kappa)
heavy 1: not shown
heavy 2: not shown
light: DIVMTQSPLSLPVTPGEPASISCQASESLVHSNRNTYLHWYLQKPGQSPQLLIYKVSNRFSGVPDRFSGSGSGTDFTLKISRVEAEDVGVYYCSQNTHVPPTFGQGTKVEIERTVAAPSVFIFPPSDEQLKSGTASVVCLLNNFYPREAKVQWKVDNALQSGNSQESVTEQDSKDSTYSLSSTLTLSKADYEKHKVYACEVTHQGLSSPVTKSFNRGEC
notes: heterodimerized; mutation in the B3 H chain only; also called He Ab K326_20W
With B3, the He/Con_2b was 148 % of control.

B4: GpH7-A5/GpH7-B3 variant K326_08L/GpL16-k0 (antibody, human IgG1, kappa)
heavy 1: not shown
heavy 2: not shown
light: DIVMTQSPLSLPVTPGEPASISCQASESLVHSNRNTYLHWYLQKPGQSPQLLIYKVSNRFSGVPDRFSGSGSGTDFTLKISRVEAEDVGVYYCSQNTHVPPTFGQGTKVEIERTVAAPSVFIFPPSDEQLKSGTASVVCLLNNFYPREAKVQWKVDNALQSGNSQESVTEQDSKDSTYSLSSTLTLSKADYEKHKVYACEVTHQGLSSPVTKSFNRGEC
notes: heterodimerized; mutation in the B3 H chain only; also called He Ab K326_08L
With B4, the He/Con_2b was 177 % of control.

B5: GpH7-A5/GpH7-B3 variant K326_19Q/GpL16-k0 (antibody, human IgG1, kappa)
heavy 1: not shown
heavy 2: not shown
light: DIVMTQSPLSLPVTPGEPASISCQASESLVHSNRNTYLHWYLQKPGQSPQLLIYKVSNRFSGVPDRFSGSGSGTDFTLKISRVEAEDVGVYYCSQNTHVPPTFGQGTKVEIERTVAAPSVFIFPPSDEQLKSGTASVVCLLNNFYPREAKVQWKVDNALQSGNSQESVTEQDSKDSTYSLSSTLTLSKADYEKHKVYACEVTHQGLSSPVTKSFNRGEC
notes: heterodimerized; mutation in the B3 H chain only; label printed K326_190, read as K326_19Q; also called He Ab K326_19Q
Turning to B5, the He/Con_2b was 139 % of control.

B6: GpH7-A5/GpH7-B3 variant K334_13S/GpL16-k0 (antibody, human IgG1, kappa)
heavy 1: not shown
heavy 2: not shown
light: DIVMTQSPLSLPVTPGEPASISCQASESLVHSNRNTYLHWYLQKPGQSPQLLIYKVSNRFSGVPDRFSGSGSGTDFTLKISRVEAEDVGVYYCSQNTHVPPTFGQGTKVEIERTVAAPSVFIFPPSDEQLKSGTASVVCLLNNFYPREAKVQWKVDNALQSGNSQESVTEQDSKDSTYSLSSTLTLSKADYEKHKVYACEVTHQGLSSPVTKSFNRGEC
notes: heterodimerized; mutation in the B3 H chain only; also called He Ab K334_13S
B6: the He/Con_2b is 111 % of control.

B7: GpH7-A5/GpH7-B3 variant K334_04F/GpL16-k0 (antibody, human IgG1, kappa)
heavy 1: not shown
heavy 2: not shown
light: DIVMTQSPLSLPVTPGEPASISCQASESLVHSNRNTYLHWYLQKPGQSPQLLIYKVSNRFSGVPDRFSGSGSGTDFTLKISRVEAEDVGVYYCSQNTHVPPTFGQGTKVEIERTVAAPSVFIFPPSDEQLKSGTASVVCLLNNFYPREAKVQWKVDNALQSGNSQESVTEQDSKDSTYSLSSTLTLSKADYEKHKVYACEVTHQGLSSPVTKSFNRGEC
notes: heterodimerized; mutation in the B3 H chain only; also called He Ab K334_04F
As to B7, the He/Con_2b is 111 % of control.

B8: GpH7-A5/GpH7-B3 variant K334_05P/GpL16-k0 (antibody, human IgG1, kappa)
heavy 1: not shown
heavy 2: not shown
light: DIVMTQSPLSLPVTPGEPASISCQASESLVHSNRNTYLHWYLQKPGQSPQLLIYKVSNRFSGVPDRFSGSGSGTDFTLKISRVEAEDVGVYYCSQNTHVPPTFGQGTKVEIERTVAAPSVFIFPPSDEQLKSGTASVVCLLNNFYPREAKVQWKVDNALQSGNSQESVTEQDSKDSTYSLSSTLTLSKADYEKHKVYACEVTHQGLSSPVTKSFNRGEC
notes: heterodimerized; mutation in the B3 H chain only; also called He Ab K334_05P
For B8, the He/Con_2b is 105 % of control.

B9: GpH7-A5/GpH7-B3 variant K334_02A/GpL16-k0 (antibody, human IgG1, kappa)
heavy 1: not shown
heavy 2: not shown
light: DIVMTQSPLSLPVTPGEPASISCQASESLVHSNRNTYLHWYLQKPGQSPQLLIYKVSNRFSGVPDRFSGSGSGTDFTLKISRVEAEDVGVYYCSQNTHVPPTFGQGTKVEIERTVAAPSVFIFPPSDEQLKSGTASVVCLLNNFYPREAKVQWKVDNALQSGNSQESVTEQDSKDSTYSLSSTLTLSKADYEKHKVYACEVTHQGLSSPVTKSFNRGEC
notes: heterodimerized; mutation in the B3 H chain only; also called He Ab K334_02A
As for B9, the He/Con_2b is 108 % of control.

B10: GpH7-A5/GpH7-B3 variant K326_04F/GpL16-k0 (antibody, human IgG1, kappa)
heavy 1: not shown
heavy 2: not shown
light: DIVMTQSPLSLPVTPGEPASISCQASESLVHSNRNTYLHWYLQKPGQSPQLLIYKVSNRFSGVPDRFSGSGSGTDFTLKISRVEAEDVGVYYCSQNTHVPPTFGQGTKVEIERTVAAPSVFIFPPSDEQLKSGTASVVCLLNNFYPREAKVQWKVDNALQSGNSQESVTEQDSKDSTYSLSSTLTLSKADYEKHKVYACEVTHQGLSSPVTKSFNRGEC
notes: heterodimerized; mutation in the B3 H chain only; also called He Ab K326_04F
As to B10, the He/Con_2b is 155 % of control.

B11: GpH7-A5/GpH7-B3 variant K326_09D/GpL16-k0 (antibody, human IgG1, kappa)
heavy 1: not shown
heavy 2: not shown
light: DIVMTQSPLSLPVTPGEPASISCQASESLVHSNRNTYLHWYLQKPGQSPQLLIYKVSNRFSGVPDRFSGSGSGTDFTLKISRVEAEDVGVYYCSQNTHVPPTFGQGTKVEIERTVAAPSVFIFPPSDEQLKSGTASVVCLLNNFYPREAKVQWKVDNALQSGNSQESVTEQDSKDSTYSLSSTLTLSKADYEKHKVYACEVTHQGLSSPVTKSFNRGEC
notes: heterodimerized; mutation in the B3 H chain only; also called He Ab K326_09D
Take B11: the He/Con_2b was 193 % of control.
